Data published in patent publication US20230065562A1, “DUAL CONTROLS FOR THERAPEUTIC CELL ACTIVATION OR ELIMINATION” (Bellicum Pharmaceuticals, Inc., priority 2015, published 2023).
Substitutions are numbered along the chain they refer to. Numbers in names are those of the source. Entries after “also recorded” stand apart in the source; their conditions may differ. Values belong to the molecule of their own block, whether it stands above or below them. Where a SMILES comes first, the peptide text is derived from it. Where no end group is shown, it is not given here. The star is where a group is joined. Cbz = O=C(OCc1ccccc1)*; CH2F = FC*

Key:
[1] = system: iCasp9M-transduced EBV-CTLs; experiment: CID-induced apoptosis / loss of GFP+ cells in iCasp9M-transduced EBV-CTLs; assay type: cell-based, human; conditions: 100 μM for 1 hour prior to adding CID
Protocol: CID (AP20187; ARIAD Pharmaceuticals) at indicated concentrations was added to transfected 293T cells or transduced CTLs. Adherent and nonadherent cells were harvested and washed with annexin binding buffer (BD Pharmingen, San Jose, Calif.). Cells were stained with annexin-V and 7-amino-actinomycin D (7-AAD) for 15 minutes according to the manufacturer's instructions (BD Pharmingen). Within 1 hour after staining, cells were analyzed by flow cytometry using CellQuest software (Becton Dickinson).
Inducible iCasp9M proficiency in CTLs was tested by monitoring loss of GFP-expressing cells after administration of CID; 91.3% (range, 89.5%-92.6% in 5 different donors) of GFP^+ cells were eliminated after a single 10-nM dose of CID. […] In all experiments, CTLs that survived CID treatment had low transgene expression with a 70% (range, 55%-82%) reduction in mean fluorescence intensity of GFP after CID. No further elimination of the surviving GFP^+ T cells could be obtained by an antigenic stimulation followed by a second 10-nM dose of CID. Therefore, the non-responding CTLs most likely expressed insufficient iCasp9M for functional activation by CID. To investigate the correlation between low levels of expression and CTL non-response to CID, CTLs were sorted for low, intermediate, and high expression of the linked marker gene GFP and mixed 1:1 with nontransduced CTLs from the same donor to allow for an accurate quantitation of the number of transduced T cells responding to CID-induced apoptosis.
The number of transduced T cells eliminated increased with the level of GFP transgene expression (see FIGS. 4A, 4B and 4C). To determine the correlation between transgene expression and function of iCasp9M, iCasp9M IRES.GFP-transduced EBV-CTL were selected for low (mean 21), intermediate (mean 80) and high (mean 189) GFP expression. Selected T-cells were incubated overnight with 10 nM CID and subsequently stained with annexin V and 7-AAD. Indicated are the percentages of annexin V+/7-AAD− and annexin V+/7-AAD+ T−. Selected T-cells were mixed 1:1 with non-transduced T-cells and incubated with 10 nM CID following antigenic stimulation. Indicated is the percentage of residual GFP-positive T-cells on day 7.
For GFPhigh-selected cells, 10 nM CID led to deletion of 99.1% (range, 98.7%-99.4%) of transduced cells. On the day of antigen stimulation, F-Casp9M.I.GFP-transduced CTLs were either untreated or treated with 10 nM CID. Seven days later, the response to CID was measured by flow cytometry for GFP. The percentage of transduced T cells was adjusted to 50% to allow for an accurate measurement of residual GFP^+ cells after CID treatment. The responses to CID in unselected (top row of and GFPhigh-selected CTLs (bottom row of was compared. The percentage of residual GFP^+ cells is indicated.
After overnight incubation with 10 nM CID, F-Casp9M.I.GFPhigh-transduced T cells had apoptotic characteristics such as cell shrinkage and fragmentation by microscopic evaluation. […] A representative example of 3 separate experiments is shown.

[2] = system: Raji-GFP cells; experiment: Raji-GFP coculture with CD19 CAR-T cells (flow cytometry); assay type: cell-based, human; conditions: 2 nM, E:T 1:5, seven days
[3] = system: HPAC PSCA+ tumor cells; experiment: T cell anti-tumor assay with HPAC-RFP cells (IncuCyte, ELISA); assay type: cell-based, human; conditions: 2 nM, E:T 1:30
Protocol: PBMCs from donor 920 were activated and co-transduced with GFP-Ffluc and iMC+CARζ-T (189), i9+CARζ+MC (873), or FwtFRBC9/MC.FvFv (1308)-encoding vectors. […] (A & B) Two days post-seeding, culture supernatants were analyzed for IL-2, IL-6, and IFN-γ production by ELISA. […] Numbers of HPAC-RFP and T cell-GFP at the E:T 1:2 ratio was analyzed using the basic analyzer software for the IncuCyte at day 7 (Ci) and day 8 with 0 nM suicide drug (Cii) and 10 nM suicide drug (Ciii). Similar analysis was also performed at the 1:5 E:T ratio (D). (Note: the y-axis in Ci and Di are at log-scale).
The HPAC PSCA^+ tumor cells were stably labeled with nuclear-localized RFP protein using the NucLight™ Red Lentivirus Reagent (Essen Bioscience, 4625). To set up the coculture, 4000 HPAC-RFP cells were seeded per well of 96-well plates in 100 μl of CTL medium without IL-2 for at least 4 hours to allow tumor cells to adhere. After transduction with the appropriate retrovirus and allowed to rest for at least 7 days in culture, T were seeded according to various E:T ratios to the HPAC-RFP-containing 96-well plates. […] Each plate was set up in duplicates, one plate to monitor with the IncuCyte cell imaging system and one plate for supernatant collection for ELISA assay on day 2. The plates were centrifuged for 5 min at 400×g and placed inside the IncuCyte (Essen Bioscience, Dual Color Model 4459) to monitor red fluorescence (and green fluorescence if T cells were labeled with GFP-Ffluc) every 2-3 hours for a total of 7 days at 10× objective. Image analysis was performed using the “HPAC-RFP_TcellsGFP_10×_MLD” processing definition. On day 7, HPAC-RFP cells were analyzed using the “Red Object Count (1/well)” metric. […] On day 8, Tcell-GFP cells were analyzed using the “Total Green Object Integrated Intensity” metric. Each condition was performed at least in duplicates and each well was imaged at 4 different locations.

[4] = system: transduced T cells (human PBMCs); experiment: IL-6 ELISA as indicator of MC activity in transduced T cells; assay type: cell-based; conditions: pBP1440, 24 hours
[5] = system: transduced T cells; experiment: T cell caspase assay (IncuCyte, caspase 3/7 green reagent); assay type: cell-based, human
Protocol: To enable detection of apoptosis using the IncuCyte instrument, 2 μM of IncuCyte™ Kinetic Caspase-3/7 Apoptosis reagent (Essen Bioscience, 4440) were add to each well to reach a total volume of 200 μl. The plates were centrifuged for 5 min at 400×g and placed inside the IncuCyte (Dual Color Model 4459) to monitor green fluorescence every 2-3 hours for a total of 48 hours at 10× objective. Image analysis was performed using the “Tcells_caspreagent_phase_green_10×_MLD” processing definition. The “Total Green Object Integrated Intensity” metric is used to quantify caspase activation. Each condition was performed in duplicates and each well was imaged at 4 different locations.
To enable detection of apoptosis using the IncuCyte instrument, 2 μM of IncuCyte™ Kinetic Caspase-3/7 Apoptosis reagent (Essen Bioscience, 4440) was added to each well to reach a total volume of 200 μl. The plates were centrifuged for 5 min at 400×g and placed inside the IncuCyte (Dual Color Model 4459) to monitor green fluorescence every 2-3 hours for a total of 48 hours at 10× objective. Image analysis was performed using the “Tcells_caspreagent_phase_green_10×_MLD” processing definition. The “Total Green Object Integrated Intensity” metric and the “Phase Object Confluence (Percent)” were used to quantify caspase activation. Each condition was performed in duplicate and each well was imaged at 4 different locations.

[6] = system: NF-κB; experiment: NF-κB SeAP reporter assay of inducible MyD88/CD40 activity; assay type: cell-based
[7] = biological target: FRBL (Homo sapiens, UniProt P42345+P62942, T2098L); experiment: Rapalog binding to mutant FRB (FRBL/KLW) versus wild-type FRB
Sequence of FRBL (P42345 2012-2144 T2098L limits assumed): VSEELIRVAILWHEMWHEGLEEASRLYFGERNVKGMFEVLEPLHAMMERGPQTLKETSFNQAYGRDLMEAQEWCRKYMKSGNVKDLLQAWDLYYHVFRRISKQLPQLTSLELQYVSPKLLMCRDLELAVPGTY
Sequence of FRBL (P62942 2-108 limits assumed): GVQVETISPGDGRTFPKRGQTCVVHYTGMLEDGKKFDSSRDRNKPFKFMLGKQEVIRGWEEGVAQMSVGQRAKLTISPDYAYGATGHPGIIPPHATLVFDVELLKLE

[8] = system: primary T cells; experiment: AP1903-dependent cytotoxicity in primary T cells transduced with iCasp9 variants; assay type: cell-based, human; conditions: for killing of target T cells within 10 days: AP1903 at day 0 and day 4; for sensitivity to AP1903 in primary T cells: mostly single copy, 24-hour assay
Protocol: The effects of various caspase polypeptides at mostly single copy in primary T cells was assayed. This may reflect more accurately how these suicide genes will be used therapeutically.
Primary T cells from healthy donors (n=6) were transduced with retrovirus encoding mutant or wild-type iCasp9 or iCasp9-D330A, and the ΔCD19 cell surface marker. Following transduction, iCasp9-transduced T cells were purified using CD19-microbeads and a magnetic column.

[9] = system: HEK293T/16 cells; experiment: Secreted alkaline phosphatase (SEAP)-based surrogate killing assay of iCasp9 mutants; assay type: cell-based, human; conditions: for Basal Activity (relative to wild type/unmodified Caspase-9): SEAP assay without AP1903; for basal activity: relative SEAP activity Units: no AP1903

Molecule: COC(=O)C[C@H](NC(=O)[C@H](C)NC(=O)[C@@H](NC(=O)OCc1ccccc1)C(C)C)C(=O)CF [zVAD-fmk] (Cbz-Val-Ala-Asp(OMe)-CH2F)
effect on CID-induced apoptosis [1]: inhibited

EC50 / concentration stimulating NF-κB reporter activity via MC-Rap ([6]; MC-rap-CAR construct pBP1440): subnanomolar | EC50 ([6]; iRMC (KLW, wild-type FKBP12, MyD88, CD40), read-out: EC50, NF-κB activity via iRMC): < 1 nM | affinity for mutant FRB domain KLW [7]: subnanomolar affinity | binds FRBL at concentrations lower than wild-type FRB in mTOR [7]: 20 fold
Molecule: C7-isobutyloxyrapamycin
CAR-T cells with FwtFRBC9/MC.FvFv [2]: cause cell death | tumor cell control by MC-rap containing CAR-T cells [3]: able to control tumor cells as effectively as rimiducid stimulated iMC | MC activity (secreted IL-6) in MC-rap-T cells [4]: strongly responsive | activation of apoptosis at high concentrations ([5]; over 100 fold above the level used to activate MC-rap): insufficient to activate apoptosis

Molecule: Q-LEHD-OPh (QLEHD-OPh)
level not toxic to the T cells [5]: > 100 µM | concentration efficiently inhibiting caspase-9 activation by iC9 and iRC9 ([5]; 20 nM of the respective activating ligands): ≤ 4 µM

B1: F404Y: modified iCasp9, F404Y (protein)
chain: VDGFGDVGALESLRGNADLAYILSMEPCGHCLIINNVNFCRESGLRTRTGSNIDCEKLRRRFSSLHFMVEVKGDLTAKKMVLALLELARQDHGALDCCVVVILSHGCQASHLQFPGAVYGTDGCPVSVEKIVNIFNGTSCPSLGGKPKLFFIQACGGEQKDHGFEVASTSPEDESPGSNPEPDATPFQEGLRTFDQLDAISSLPTPSDIFVSYSTFPGFVSWRDPKSGSWYVETLDDIFEQWAHSEDLQSLLLRVANAVSVKGIYKQMPGCYNFLRKKLFFKTSASRA
killing of target T cells within 10 days [8]: indistinguishable from wild type | Basal Activity (relative to wild type/unmodified Caspase-9) [9]: lowered basal activity; also recorded: Decreased

B2: S144D: modified iCasp9, S144D (protein)
chain: B1 chain with S12D, Y272F
Basal Activity (relative to wild type/unmodified Caspase-9) [9]: Decreased

B3: S196D: modified iCasp9, S196D (protein)
chain: B1 chain with S64D, Y272F
Basal Activity (relative to wild type/unmodified Caspase-9) [9]: Decreased

B4: N405Q: modified iCasp9, N405Q (SEQ ID NO: 26) (protein)
chain: GFGDVGALESLRGNADLAYILSMEPCGHCLIINNVNFCRESGLRTRTGSNIDCEKLRRRFSSLHFMVEVKGDLTAKKMVLALLELARQDHGALDCCVVVILSHGCQASHLQFPGAVYGTDGCPVSVEKIVNIFNGTSCPSLGGKPKLFFIQACGGEQKDHGFEVASTSPEDESPGSNPEPDATPFQEGLRTFDQLDAISSLPTPSDIFVSYSTFPGFVSWRDPKSGSWYVETLDDIFEQWAHSEDLQSLLLRVANAVSVKGIYKQMPGCFQFLRKKLFFKTS
killing of target T cells within 10 days [8]: indistinguishable from wild type | sensitivity to AP1903 in primary T cells [8]: less sensitive to AP1903 | basal activity: relative SEAP activity Units ([9]; 1 μg iCasp9 per million cells): 179081 Units | basal activity: relative SEAP activity Units ([9]; 2 μg iCasp9 per million cells): 175529 Units | Basal Activity (relative to wild type/unmodified Caspase-9) [9]: lower basal signaling; also recorded: lowered basal activity; also recorded: consistently lower basal activity; also recorded: lower basal activity than D330A; also recorded: very low basal activity; also recorded: Decreased

B5: D330A: modified iCasp9, D330A (SEQ ID NO: 24) (protein)
chain: B4 chain with D196A, Q271N
IC50 of AP1903 in transduced T cells versus wild-type iCasp9 ([8]; AP1903 0-100 nM, 24 hours, 6 donors): significantly lower | sensitivity to AP1903 in primary T cells [8]: more sensitive to AP1903 at low titers; also recorded: more sensitive to AP1903 than the wild type | basal activity: relative SEAP activity Units ([9]; 1 μg iCasp9 per million cells): 148928 Units | basal activity: relative SEAP activity Units ([9]; 2 μg iCasp9 per million cells): 136863 Units | Basal Activity (relative to wild type/unmodified Caspase-9) [9]: lowered basal signaling; also recorded: lowered basal activity; also recorded: less basal activity than wild type Caspase-9; also recorded: Decreased
